1 substance from patent US20040019188A1, “Targeting through integrins” (priority 2000, published 2004) can be followed below.

This test addresses β1 integrins on HEp-2 cells.

Turning to RGDS peptide (Gibco), the ID30 is 170 µM.
